Data from patent US20130184211A1 (NEW YORK UNIVERSITY, published 2013).

Target: T1, complex of V5-tagged FGFR1c and FLAG-tagged membrane-spanning murine Klotho isolated from transfected … (murine, UniProt O35082 35-1014)
T1 construct: Isolated from cell lysate on anti-V5 agarose beads; also called FGFR1c-Klotho complex (co-immunoprecipitated); binary FGFR-Klotho complex; not shown: FGFR1c, V5-tagged, expressed from a vector in HEK293-Klotho cells
Experiment: co-immunoprecipitation competition; competitor FGF23^28-251 (1 nM)
Description: Co-immunoprecipitation may also be used to determine that an agent specifically binds the binary FGFR-Klotho complex. One aspect of the present invention utilizes co-immunoprecipitation studies. Subconfluent cultures of a HEK293 cell line ectopically expressing the FLAG-tagged membrane-spanning form of murine Klotho were transfected with expression vectors for V5-tagged FGFR1c, FGFR3c, or FGFR4. Two days later, the cells were lysed, and FGFR-Klotho complexes were isolated from cell lysate using anti-V5 agarose beads. The beads were then incubated with either FGF23¹⁸⁰⁻²⁵¹ or FGF23²⁸⁻²⁵¹ alone, or with mixtures of FGF23²⁸⁻²⁵¹ with either increasing FGF23¹⁸⁰⁻²⁵¹ or increasing FGF23¹⁸⁰⁻²⁰⁵. Bead-bound proteins were resolved on SDS-polyacrylamide gels, transferred to nitrocellulose membranes, and labeled using antibodies to Klotho, FGF23, and V5 epitope tag.

B1: N-terminally hexahistidine-tagged 72-amino acid C-terminal tail of human FGF23 (S180 to I251), FGF23^180-251 (peptide)
peptide: SAEDDSERDPLNVLKPRARMTPAPASCSQELPSAEDNSPMASDPLGVVRGGRVNTHAGGTGPEGCRPFAKFI
notes: Expressed in E. coli; also called FGF23 C-terminal tail peptide; C-terminal tail of FGF23; not shown: N-terminal hexahistidine tag (six His)
molar excess over FGF23^28-251 that completely blocked its binding: 76 fold molar excess
